The test deals with Mayaro virus (MAYV) capsid (C) protein, strain IQT4235 (Mayaro virus, strain IQT4235). Put plainly: cryo-EM structure.

Several values for one entry are separate records, joined by “and”; a condition that tells them apart may be missing. Equal values may be shown once.

The stoichiometry N is a count of units in the complex or per binding partner.

Consider “Mayaro virus (MAYV) capsid (C) protein, strain IQT4235 (natural protein)”, for which the stoichiometry N is 6 and 5.

These data come from paper doi:10.1101/2020.11.06.371773.
